{"source": "paper PMC7696373", "biological_target": "isoform CBd of the basic phospholipase A2 (PLA2) subunit of crotoxin (Crotalus durissus terrificus)", "experiment": "crystal structure"}
{"substance": "isoform CBd of the basic phospholipase A2 (PLA2) subunit of crotoxin (enzyme)", "values": [{"measurement": "stoichiometry N", "value": 4}]}
